Results published in IntAct's records for PubMed 23415225.

B1: AP-1 complex subunit gamma-1 (Mus musculus), P22892 (parent)
chain: MPAPIRLRELIRTIRTARTQAEEREMIQKECAAIRSSFREEDNTYRCRNVAKLLYMHMLGYPAHFGQLECLKLIASQKFTDKRIGYLGAMLLLDERQDVHLLMTNCIKNDLNHSTQFVQGLALCTLGCMGSSEMCRDLAGEVEKLLKTSNSYLRKKAALCAVHVIRKVPELMEMFLPATKNLLNEKNHGVLHTSVVLLTEMCERSPDMLAHFRKLVPQLVRILKNLIMSGYSPEHDVSGISDPFLQVRILRLLRILGRNDDDSSEAMNDILAQVATNTETSKNVGNAILYETVLTIMDIKSESGLRVLAINILGRFLLNNDKNIRYVALTSLLKTVQTDHNAVQRHRSTIVDCLKDLDVSIKRRAMELSFALVNGNNIRGMMKELLYFLDSCEPEFKADCASGIFLAAEKYAPSKRWHIDTIMRVLTTAGSYVRDDAVPNLIQLITNSVEMHAYTVQRLYKAILGDYSQQPLVQVAAWCIGEYGDLLVSGQCEEEEPIQVTEDEVLDILESVLISNMSTSVTRGYALTAIMKLSTRFTCTVNRIKKVVSIYGSSIDVELQQRAVEYNALFKKYDHMRSALLERMPVMEKVTTNGPSEIVQTNGETEPAPLETKPPPSGPQPTSQANDLLDLLGGNDITPVIPTAPTSKPASAGGELLDLLGDITLTGAPAAAPTPASVPQISQPPFLLDGLSSQPLFNDIAPGIPSITAYSKNGLKIEFTFERSNTNPSVTVITIQASNSTELDMTDFVFQAAVPKTFQLQLLSPSSSVVPAFNTGTITQVIKVLNPQKQQLRMRIKLTYNHKGSAMQDLAEVNNFPPQSWQ
partner: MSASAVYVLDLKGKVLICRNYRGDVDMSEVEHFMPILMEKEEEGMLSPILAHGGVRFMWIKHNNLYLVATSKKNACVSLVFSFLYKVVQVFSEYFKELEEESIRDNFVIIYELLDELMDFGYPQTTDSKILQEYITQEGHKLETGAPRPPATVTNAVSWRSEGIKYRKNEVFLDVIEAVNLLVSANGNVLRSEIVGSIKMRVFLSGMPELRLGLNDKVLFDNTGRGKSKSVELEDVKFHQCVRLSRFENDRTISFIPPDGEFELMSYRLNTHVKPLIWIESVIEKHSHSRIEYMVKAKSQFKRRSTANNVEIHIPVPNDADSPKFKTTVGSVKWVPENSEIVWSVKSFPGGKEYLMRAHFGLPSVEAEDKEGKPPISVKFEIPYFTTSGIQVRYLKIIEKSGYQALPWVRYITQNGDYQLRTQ
B2: AP-1 complex subunit beta-1 (Homo sapiens), Q10567 (parent)
chain: MTDSKYFTTTKKGEIFELKAELNSDKKEKKKEAVKKVIASMTVGKDVSALFPDVVNCMQTDNLELKKLVYLYLMNYAKSQPDMAIMAVNTFVKDCEDPNPLIRALAVRTMGCIRVDKITEYLCEPLRKCLKDEDPYVRKTAAVCVAKLHDINAQLVEDQGFLDTLKDLISDSNPMVVANAVAALSEIAESHPSSNLLDLNPQSINKLLTALNECTEWGQIFILDCLANYMPKDDREAQSICERVTPRLSHANSAVVLSAVKVLMKFMEMLSKDLDYYGTLLKKLAPPLVTLLSAEPELQYVALRNINLIVQKRPEILKHEMKVFFVKYNDPIYVKLEKLDIMIRLASQANIAQVLAELKEYATEVDVDFVRKAVRAIGRCAIKVEQSAERCVSTLLDLIQTKVNYVVQEAIVVIKDIFRKYPNKYESVIATLCENLDSLDEPEARAAMIWIVGEYAERIDNADELLESFLEGFHDESTQVQLQLLTAIVKLFLKKPTETQELVQQVLSLATQDSDNPDLRDRGYIYWRLLSTDPVAAKEVVLAEKPLISEETDLIEPTLLDELICYIGTLASVYHKPPSAFVEGGRGVVHKSLPPRTASSESAESPETAPTGAPPGEQPDVIPAQGDLLGDLLNLDLGPPVSGPPLATSSVQMGAVDLLGGGLDSLMGDEPEGIGGTNFVAPPTAAVPANLGAPIGSGLSDLFDLTSGVGTLSGSYVAPKAVWLPAMKAKGLEISGTFTRQVGSISMDLQLTNKALQVMTDFAIQFNRNSFGLAPAAPLQVHAPLSPNQTVEISLPLSTVGSVMKMEPLNNLQVAVKNNIDVFYFSTLYPLHILFVEDGKMDRQMFLATWKDIPNENEAQFQIRDCPLNAEAASSKLQSSNIFTVAKRNVEGQDMLYQSLKLTNGIWVLAELRIQPGNPSCTDLELSLKCRAPEVSQHVYQAYETILKN

Variants of: B1
Conditions: with ap1m1_mouse Ap1m1, P35585

effect of a mutation on the interaction | Variant
disrupting interaction strength | L68D;L71E;L102E

Variants of: B2
Conditions: with ap1g1_human AP1G1, O43747

effect of a mutation on the interaction | Variant
disrupting interaction strength | I85D;V88D
